Substitutions are numbered along the chain they refer to. Names and notes keep the numbering of the source.
B1: CDK4-WT (over-expressed) (protein)
chain: MATSRYEPVAEIGVGAYGTVYKARDPHSGHFVALKSVRVPNGGGGGGGLPISTVREVALLRRLEAFEHPNVVRLMDVCATSRTDREIKVTLVFEHVDQDLRTYLDKAPPPGLPAETIKDLMRQFLRGLDFLHANCIVHRDLKPENILVTSGGTVKLADFGLARIYSYQMALTPVVVTLWYRAPEVLLQSTYATPVDMWSVGCIFAEMFRRKPLFCGNSEADQLGKIFDLIGLPPEDDWPRDVSLPRGAFPPRGPRPVQSVVPEMEESGAQLLLEMLTFNPHKRISAFRALQHSYLHKDEGNPE
B2: Flag-CDK4-T172A (protein)
chain: B1 chain with T172A

Experiments:
[1] = target: RUNX3 (Runt-related transcription factor 3) protein, Q13761
Sequence of RUNX3 (Runt-related transcription factor 3) protein, Q13761 (Q13761 whole entry): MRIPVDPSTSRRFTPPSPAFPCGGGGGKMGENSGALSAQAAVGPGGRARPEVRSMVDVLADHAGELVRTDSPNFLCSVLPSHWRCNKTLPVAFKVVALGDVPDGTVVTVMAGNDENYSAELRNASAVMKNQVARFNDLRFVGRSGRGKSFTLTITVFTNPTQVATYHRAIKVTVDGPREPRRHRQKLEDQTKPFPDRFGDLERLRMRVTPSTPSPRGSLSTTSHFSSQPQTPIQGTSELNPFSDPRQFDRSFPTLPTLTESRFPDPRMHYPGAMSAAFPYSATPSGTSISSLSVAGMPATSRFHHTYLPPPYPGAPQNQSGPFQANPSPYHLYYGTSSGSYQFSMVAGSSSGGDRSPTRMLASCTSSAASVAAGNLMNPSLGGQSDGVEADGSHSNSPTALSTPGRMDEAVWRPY

Sequence of Myc-RUNX3, Q13761 (Q13761 whole entry): as above

Protein | phosphorylation of RUNX3 at Ser-356 (immunoblot) (Myc-RUNX3, Q13761) | phosphorylation of RUNX3 at Ser-356 (immunoblot) [1]
B1 | The over-expressed CDK4-WT phosphorylated Myc-RUNX3 2 to 4 hours after serum stimulation | 
B2 |  | did not phosphorylate the 356th serine of RUNX3
